Assay results as given in article PMC5451212, “RISC-interacting clearing 3’- 5’ exoribonucleases (RICEs) degrade uridylated cleavage fragments to maintain functional RISC in Arabidopsis thaliana” (eLife, 2017).

How the values were obtained:
[1] = target: T1, MBP-AGO10 NC (127-336) (A. thaliana, UniProt Q9XGW1 127-336); assay: pull-down; His-SUMO baits and MBP-fusion preys purified from E. coli; prey preabsorbed on Ni-NTA resin, then incubated with bait 1 hr at room temperature and captured on Ni-NTA; 50 mM Tris pH 7.5, 150 mM NaCl, 0.2% glycerol, 0.6% Triton X-100, 0.5 mM β-mercaptoethanol; six washes with 300 mM NaCl; blot with anti-MBP; conditions: both partners purified
T1 construct: source: E. coli BL21 (DE3), purified (amylose resin); not shown: MBP, N-terminal, kept
T1 sequence (looked up): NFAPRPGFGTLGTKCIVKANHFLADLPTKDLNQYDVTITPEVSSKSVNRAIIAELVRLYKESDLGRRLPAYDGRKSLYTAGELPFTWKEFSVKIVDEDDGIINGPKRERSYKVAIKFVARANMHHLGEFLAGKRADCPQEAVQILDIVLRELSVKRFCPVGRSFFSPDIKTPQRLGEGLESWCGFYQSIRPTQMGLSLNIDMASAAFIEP

[2] = target: T2, MBP-AGO10 (A. thaliana, UniProt Q9XGW1 1-988); assay: as above; conditions: both partners purified
T2 construct: ARGONAUTE 10 (AGO10), A. thaliana; source: E. coli BL21 (DE3), purified (amylose resin); not shown: MBP, N-terminal, kept
T2 sequence (looked up): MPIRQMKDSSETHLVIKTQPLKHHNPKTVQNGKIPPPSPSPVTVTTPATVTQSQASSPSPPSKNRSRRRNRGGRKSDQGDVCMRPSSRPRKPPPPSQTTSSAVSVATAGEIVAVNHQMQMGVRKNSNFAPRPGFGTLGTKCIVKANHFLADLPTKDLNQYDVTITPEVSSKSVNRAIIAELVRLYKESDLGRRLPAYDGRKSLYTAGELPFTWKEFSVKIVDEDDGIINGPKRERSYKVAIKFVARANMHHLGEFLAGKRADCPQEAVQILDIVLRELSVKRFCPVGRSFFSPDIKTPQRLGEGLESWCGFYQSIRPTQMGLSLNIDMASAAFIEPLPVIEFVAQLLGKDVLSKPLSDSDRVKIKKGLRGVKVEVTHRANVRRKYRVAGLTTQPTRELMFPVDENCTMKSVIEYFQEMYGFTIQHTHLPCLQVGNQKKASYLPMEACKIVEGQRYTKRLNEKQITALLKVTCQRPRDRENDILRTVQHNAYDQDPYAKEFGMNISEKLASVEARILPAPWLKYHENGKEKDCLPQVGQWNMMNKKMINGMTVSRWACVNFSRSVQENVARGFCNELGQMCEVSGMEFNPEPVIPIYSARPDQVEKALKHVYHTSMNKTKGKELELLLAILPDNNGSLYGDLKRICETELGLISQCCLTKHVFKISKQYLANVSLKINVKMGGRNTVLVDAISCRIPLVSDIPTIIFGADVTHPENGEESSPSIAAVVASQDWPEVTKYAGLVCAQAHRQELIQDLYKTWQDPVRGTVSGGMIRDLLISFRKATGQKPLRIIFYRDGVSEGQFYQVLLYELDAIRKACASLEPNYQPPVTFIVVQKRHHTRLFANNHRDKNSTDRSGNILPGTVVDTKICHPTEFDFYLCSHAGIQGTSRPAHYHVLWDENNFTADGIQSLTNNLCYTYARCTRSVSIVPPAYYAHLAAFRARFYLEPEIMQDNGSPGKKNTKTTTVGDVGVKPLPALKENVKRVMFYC

[3] = target: T3, MBP-AGO10 PIWI (625-988) (A. thaliana, UniProt Q9XGW1 625-988); assay: as above; conditions: both partners purified
T3 construct: AGO10, A. thaliana, residues 625-988 (PIWI); source: E. coli BL21 (DE3), purified (amylose resin); not shown: MBP, N-terminal, kept
T3 sequence (looked up): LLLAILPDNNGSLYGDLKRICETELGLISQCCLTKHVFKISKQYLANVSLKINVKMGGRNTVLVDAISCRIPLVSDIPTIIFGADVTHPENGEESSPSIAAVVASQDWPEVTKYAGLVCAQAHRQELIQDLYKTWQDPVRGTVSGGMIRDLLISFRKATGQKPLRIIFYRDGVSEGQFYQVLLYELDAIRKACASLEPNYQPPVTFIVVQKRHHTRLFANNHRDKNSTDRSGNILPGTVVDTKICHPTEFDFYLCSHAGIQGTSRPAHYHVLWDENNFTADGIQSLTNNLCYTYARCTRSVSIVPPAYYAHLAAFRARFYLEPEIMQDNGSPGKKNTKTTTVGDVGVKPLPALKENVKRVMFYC

[4] = target: T4, MBP-AGO1 (A. thaliana, UniProt O04379 1-1048); assay: as above; conditions: both partners purified
T4 construct: ARGONAUTE 1 (AGO1), A. thaliana; purified as described in Zhang et al., 2006b; source: E. coli, purified (amylose resin); not shown: MBP, N-terminal, kept
T4 sequence (looked up): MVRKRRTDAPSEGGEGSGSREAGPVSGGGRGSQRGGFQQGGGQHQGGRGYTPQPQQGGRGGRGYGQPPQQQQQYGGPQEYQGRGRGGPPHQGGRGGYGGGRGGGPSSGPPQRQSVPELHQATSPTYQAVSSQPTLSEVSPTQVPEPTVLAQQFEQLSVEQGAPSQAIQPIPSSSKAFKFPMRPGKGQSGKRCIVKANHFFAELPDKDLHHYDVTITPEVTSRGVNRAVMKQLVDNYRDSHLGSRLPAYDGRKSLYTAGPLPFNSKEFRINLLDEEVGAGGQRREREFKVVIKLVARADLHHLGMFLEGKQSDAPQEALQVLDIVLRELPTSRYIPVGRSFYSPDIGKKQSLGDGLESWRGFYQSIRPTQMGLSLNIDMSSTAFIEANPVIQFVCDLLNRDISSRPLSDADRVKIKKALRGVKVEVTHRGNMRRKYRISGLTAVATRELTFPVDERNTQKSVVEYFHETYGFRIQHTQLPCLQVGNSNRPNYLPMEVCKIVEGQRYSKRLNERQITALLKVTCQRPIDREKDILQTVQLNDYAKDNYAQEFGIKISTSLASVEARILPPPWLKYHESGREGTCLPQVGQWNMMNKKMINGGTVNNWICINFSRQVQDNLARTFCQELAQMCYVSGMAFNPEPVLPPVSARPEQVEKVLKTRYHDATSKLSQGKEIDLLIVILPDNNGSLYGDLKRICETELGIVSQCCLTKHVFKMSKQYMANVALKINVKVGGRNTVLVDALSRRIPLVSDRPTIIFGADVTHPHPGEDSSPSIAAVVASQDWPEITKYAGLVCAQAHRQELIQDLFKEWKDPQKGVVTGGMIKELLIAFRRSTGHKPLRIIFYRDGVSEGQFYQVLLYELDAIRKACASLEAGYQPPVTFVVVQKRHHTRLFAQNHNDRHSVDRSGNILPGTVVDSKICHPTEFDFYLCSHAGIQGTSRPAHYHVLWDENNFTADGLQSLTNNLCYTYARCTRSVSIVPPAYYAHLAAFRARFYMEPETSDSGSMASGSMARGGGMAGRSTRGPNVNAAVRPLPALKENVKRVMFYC

[5] = target: the molecule itself; assay: SEC; purified proteins after SUMO protease cleavage on Superdex75 (1.6 x 60), 20 mM Tris-HCl pH 7.5, 150 mM NaCl

B1: 6His-SUMO-RICE2 (natural protein, A. thaliana, UniProt Q9FNG3 1-206, looked up)
chain: MASFDGPKFKMTDGSYVQTKTIDVGSSTDISPYLSLIREDSILNGNRAVIFDVYWDVGFPETETKTKTSGWSLSSVKLSTRNLCLFLRLPKPFHDNLKDLYRFFASKFVTFVGVQIEEDLDLLRENHGLVIRNAINVGKLAAEARGTLVLEFLGTRELAHRVLWSDLGQLDSIEAKWEKAGPEEQLEAAAIEGWLIVNVWDQLSDE
notes: RICE2 (At5g06450; AtDECP), A. thaliana; open reading frame in pET28a-SUMO-DC; also called AtDECP; source: E. coli BL21 (DE3), purified (Ni-NTA); not shown: His6, N-terminal, kept; SUMO, N-terminal, kept
binding result [1]: binds | binding result [2]: binds | binding result [3]: binds | binding result [4]: binds

B2: RICE2, purified recombinant (SUMO tag cleaved) (enzyme, A. thaliana, UniProt Q9FNG3 1-206, looked up)
chain: MASFDGPKFKMTDGSYVQTKTIDVGSSTDISPYLSLIREDSILNGNRAVIFDVYWDVGFPETETKTKTSGWSLSSVKLSTRNLCLFLRLPKPFHDNLKDLYRFFASKFVTFVGVQIEEDLDLLRENHGLVIRNAINVGKLAAEARGTLVLEFLGTRELAHRVLWSDLGQLDSIEAKWEKAGPEEQLEAAAIEGWLIVNVWDQLSDE
notes: RICE2 (At5g06450; AtDECP), A. thaliana; full-length cDNA in pET28a-SUMO (BamHI/SacI); also called AtDECP; source: E. coli BL21 (DE3), purified (Ni-NTA, SUMO protease cleavage, SEC); not shown: His6, N-terminal, cleaved; SUMO, N-terminal, cleaved
stoichiometry N [5]: ~6

B3: 6His-SUMO-RICE1 (natural protein, A. thaliana, UniProt Q9SF21 1-200, looked up)
chain: MASFDGQGFMMVDNSWVQTKAIDVESTTDISPYLSKILEDSVWNGNRSIVFDVYWDVKSVSTKSEWRLCSVKFSTKNFCLFLRLPNPFCDNLKDLYRFFASKFVTFVGVQIQEDLALLKENHGIVIRSSLEIGKLAAKARGTPIVEFLGTRELAHKILWYDMSRLDSIQSKWDEASSNDRLEAAAIEGWLIFNVYDQLQQ
notes: RICE1 (At3g11770), A. thaliana; open reading frame in pET28a-SUMO-DC; source: E. coli BL21 (DE3), purified (Ni-NTA); not shown: His6, N-terminal, kept; SUMO, N-terminal, kept
binding result [1]: binds | binding result [2]: binds | binding result [3]: binds | binding result [4]: binds

B4: RICE1 Y54S, purified recombinant (enzyme, A. thaliana, UniProt Q9SF21 1-200, looked up)
chain: MASFDGQGFMMVDNSWVQTKAIDVESTTDISPYLSKILEDSVWNGNRSIVFDVSWDVKSVSTKSEWRLCSVKFSTKNFCLFLRLPNPFCDNLKDLYRFFASKFVTFVGVQIQEDLALLKENHGIVIRSSLEIGKLAAKARGTPIVEFLGTRELAHKILWYDMSRLDSIQSKWDEASSNDRLEAAAIEGWLIFNVYDQLQQ
notes: RICE1 (At3g11770), A. thaliana; point mutant made on pET28a-SUMO-RICE1; source: E. coli BL21 (DE3), purified (Ni-NTA, SUMO protease cleavage, SEC); not shown: His6, N-terminal, cleaved; SUMO, N-terminal, cleaved
binding result [5]: binds

B5: RICE1 E187A, purified recombinant (enzyme, A. thaliana, UniProt Q9SF21 1-200, looked up)
chain: MASFDGQGFMMVDNSWVQTKAIDVESTTDISPYLSKILEDSVWNGNRSIVFDVYWDVKSVSTKSEWRLCSVKFSTKNFCLFLRLPNPFCDNLKDLYRFFASKFVTFVGVQIQEDLALLKENHGIVIRSSLEIGKLAAKARGTPIVEFLGTRELAHKILWYDMSRLDSIQSKWDEASSNDRLEAAAIAGWLIFNVYDQLQQ
notes: as for B4
binding result [5]: binds

B6: RICE1 D52A, purified recombinant (enzyme, A. thaliana, UniProt Q9SF21 1-200, looked up)
chain: MASFDGQGFMMVDNSWVQTKAIDVESTTDISPYLSKILEDSVWNGNRSIVFAVYWDVKSVSTKSEWRLCSVKFSTKNFCLFLRLPNPFCDNLKDLYRFFASKFVTFVGVQIQEDLALLKENHGIVIRSSLEIGKLAAKARGTPIVEFLGTRELAHKILWYDMSRLDSIQSKWDEASSNDRLEAAAIEGWLIFNVYDQLQQ
notes: as for B4
binding result [5]: binds
